Results from the supplement of paper PMC12855868.

B1: library; numbered along this chain (parent)
chain: MAAAGGARLLRAASAVLGGPAGRWLHHAGSRAGSSGLLRNRGPGGSAEASRSLSVSARARSSSEDKITVHFINRDGETLTTKGKVGDSLLDVVVENNLDIDGFGACEGTLACSTCHLIFEDHIYEKLDAITDEENDMLDLAYGLTDRSRLGCQICLTKSMDNMTVRVPETVADARQSIDVGKTS

Variants of: B1
Assay: scaled log2 fold change in cell abundance, elesclomol vs control (0 = silent mean, 1 = nonsense mean) (scaled log2 ratio); higher = higher viability under elesclomol (loss of FDX1 cuproptosis function)
Conditions: glucose 10 mM
Description: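 Deep mutational scan of full-length human FDX1: a pooled saturation-mutagenesis ORF library (every residue 2-184 mutated to all 19 amino acids plus stop, and silent codons where available) was expressed by lentivirus in FDX1-knockout ABC1 (14 days) or HEK293T (11 days) cells grown with elesclomol (ES) or DMSO control. Variant abundance came from ORF sequencing. The log2 fold change (ES vs control, mean of duplicates) was centred on the silent-variant mean (0) and scaled to the nonsense-variant mean (1). Higher values mean greater viability under ES, i.e. loss of FDX1 function in cuproptosis.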

[1] = with ABC1 FDX1 KO, elesclomol 5 nM, 14 days
[2] = with HEK293T FDX1 KO, elesclomol 40 nM, 11 days
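Also: variant abundance is its share of total variant reads in each endpoint sample, from next-generation sequencing of the integrated ORF PCR-amplified out of genomic DNA.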

Variant | scaled log2 fold change [1] | scaled log2 fold change [2]
MAAAGGARLLRAASAVLGGPAGRWLHHAGSRAGSSGLLRNRGPGGSAEASRSLSVSARARSSSKDKITVHFINRDGETLTTKGKVGDSLLDVVVENNLDIDGFGACEGTLACSTCHLIFEDHIYEKLDAITDEENDMLDLAYGLTDRSRLGCQICLTKSMDNMTVRVPETVADARQSIDVGKTS [E64K] | 0.278 | -0.162
MAAAGGARLLRAASAVLGGPAGRWLHHAGSRAGSSGLLRNRGPGGSAEASRSLSVSARARSSSLDKITVHFINRDGETLTTKGKVGDSLLDVVVENNLDIDGFGACEGTLACSTCHLIFEDHIYEKLDAITDEENDMLDLAYGLTDRSRLGCQICLTKSMDNMTVRVPETVADARQSIDVGKTS [E64L] | -0.17 | -0.952
MAAAGGARLLRAASAVLGGPAGRWLHHAGSRAGSSGLLRNRGPGGSAEASRSLSVSARARSSSMDKITVHFINRDGETLTTKGKVGDSLLDVVVENNLDIDGFGACEGTLACSTCHLIFEDHIYEKLDAITDEENDMLDLAYGLTDRSRLGCQICLTKSMDNMTVRVPETVADARQSIDVGKTS [E64M] | -0.109 | -0.0994
MAAAGGARLLRAASAVLGGPAGRWLHHAGSRAGSSGLLRNRGPGGSAEASRSLSVSARARSSSSDKITVHFINRDGETLTTKGKVGDSLLDVVVENNLDIDGFGACEGTLACSTCHLIFEDHIYEKLDAITDEENDMLDLAYGLTDRSRLGCQICLTKSMDNMTVRVPETVADARQSIDVGKTS [E64S] | -0.691 | -0.469
MAAAGGARLLRAASAVLGGPAGRWLHHAGSRAGSSGLLRNRGPGGSAEASRSLSVSARARSSSQDKITVHFINRDGETLTTKGKVGDSLLDVVVENNLDIDGFGACEGTLACSTCHLIFEDHIYEKLDAITDEENDMLDLAYGLTDRSRLGCQICLTKSMDNMTVRVPETVADARQSIDVGKTS [E64Q] | -0.0857 | -0.107
MAAAGGARLLRAASAVLGGPAGRWLHHAGSRAGSSGLLRNRGPGGSAEASRSLSVSARARSSSIDKITVHFINRDGETLTTKGKVGDSLLDVVVENNLDIDGFGACEGTLACSTCHLIFEDHIYEKLDAITDEENDMLDLAYGLTDRSRLGCQICLTKSMDNMTVRVPETVADARQSIDVGKTS [E64I] | 0.394 | 0.168
MAAAGGARLLRAASAVLGGPAGRWLHHAGSRAGSSGLLRNRGPGGSAEASRSLSVSARARSSSPDKITVHFINRDGETLTTKGKVGDSLLDVVVENNLDIDGFGACEGTLACSTCHLIFEDHIYEKLDAITDEENDMLDLAYGLTDRSRLGCQICLTKSMDNMTVRVPETVADARQSIDVGKTS [E64P] | 0.158 | 0.0559
MAAAGGARLLRAASAVLGGPAGRWLHHAGSRAGSSGLLRNRGPGGSAEASRSLSVSARARSSSRDKITVHFINRDGETLTTKGKVGDSLLDVVVENNLDIDGFGACEGTLACSTCHLIFEDHIYEKLDAITDEENDMLDLAYGLTDRSRLGCQICLTKSMDNMTVRVPETVADARQSIDVGKTS [E64R] | -0.913 | 0.0821
